Source: article PMC12182672

Molecular target: host plasminogen (Plg), porcine (pig)
Assay: ELISA; microtiter plates coated with 0.8 ug/well Plg in 50 mM carbonate-bicarbonate buffer pH 9.8; His-tagged proteins added at 1 ug/mL; detected with His-tag monoclonal antibody and HRP anti-mouse; OD450

For “truncated rMhp390(425-604) (domain or fragment)”, the fold binding activity (OD450) over the negative control rNOD1 was 2.68 fold.

“truncated rMhp390(27-247) (domain or fragment)” showed a fold binding activity (OD450) over the negative control rNOD1 of 2.56 fold.
